{"source": "patent US8519051B2", "about": "“Block copolymer for drug conjugates and pharmaceutical composition” (priority 2006, dated 2013)", "key": {"[1]": {"assay": "MTD previously determined using normal healthy mice", "format": "in vivo", "protocol": "(§1) Male nude mice (Balb nu/nu, 5 weeks old) were purchased from Charles River Laboratories Japan, Inc., and human prostate cancer PC-3 cells were purchased from the Human Health Sciences Foundation Resources Bank. PC-3 cells that had been subcultured in a CO2 incubator were suspended in physiological saline for injection (Otsuka Pharmaceutical Co., Ltd.), and were subcutaneously injected into the back of the nude mice to a cell count of 2×10^6/50 μl per animal. Then, after keeping the nude mice for about 2 weeks, the administration of the drug was started when the mean of tumor volume reached about 50 mm^3."}, "[2]": {"system": "Human prostate cancer PC-3 cells", "assay": "drug efficacy study: tumor volume in PC-3-xenografted nude mice", "format": "in vivo, male nude mice (Balb nu/nu)", "conditions": "tail vein, every 4 days for a total of 3 times", "excerpt": "Human prostate cancer PC-3 cells subcutaneous transplanted to male nude mice were used as the model for evaluating drug efficacy."}, "in vivo": {"assay": "in vivo", "conditions": "rat, 1 mg/kg", "description": "Two compounds, i.e., the conjugate (13 DOX) obtained in Example 5a and MeO-PEG-pAsp (Hyd-DOX, Bn) (8 DOX) (Example 5b) prepared in method pursuant to Example 5a and having a different amount bound of DOX were used. An amount between 10-20 mg of each polymer was weighed accurately into a sample vial, to which 1 ml of dichloromethane was added to completely dissolve the polymer. Then, under the stream of nitrogen, the solvent was evaporated to prepare the polymer in the film form. Under reduced pressure, it was further dried at room temperature for 1 hour, and then 20 mM sodium phosphate buffer (pH 7.4)/5%(w/v) glucose was added to a polymer concentration of 10 mg/ml to hydrate the polymer film at 4° C. After stirring overnight at 4° C., it was subjected to ultrasonic treatment in ice chilled water for 10 minutes using the Biodisruptor (Nihonseiki Kaisha Ltd., High Power Unit). Subsequently, it was filtered with a 0.22 μm filter (Millipore, Millex™ GP PES) to prepare a micelle of the filtrate, which was used in the subsequent experiment.\nTo male Wistar rats (Charles River Laboratories Japan, Inc., 6-7 weeks old) under ether anesthesia, the above two micelles were administered into the tail vein under the following condition (n=3). Heparin-coated syringes were used to collect blood, and after centrifuging the blood drawn at 4° C., plasma was collected and stored at −30° C. until use.\nDose: 1 mg/kg in terms of the amount of DOX\nBlood drawing timing: 5 minutes, 1, 3, 6, 9, 24, 48 hours after administration\nAmount of blood drawn: 0.2-0.25 ml each time (from the jugular vein)\nTo 50 μl of rat plasma collected, 100 μl of acetonitrile and 50 μl of 0.4 N HCl were added in this order to make a total of 200 μl. After stirring, it was allowed to stand at room temperature for 1 hour. Subsequently, it was centrifuged (Funakoshi, Chibitan, 10,000 rpm, 10 minutes) at room temperature to collect 100 μl of the supernatant, to which 30 μl of 0.2 N NaOH, 20 μl of 1% Triton X-100, and 50 μl of 2 μg/ml of daunorubicin hydrochloride (Wako) (internal standard)/20 mM ammonium formate buffer (pH 3.0) was added in this order to make a total of 200 μl. The treatment sample liquid was filled into a HPLC sample vial, and subjected to HPLC analysis to determine the DOX concentration in the plasma.\nTo 50 μl of rat plasma collected, 100 μl of acetonitrile was added, centrifuged (Funakoshi, Chibitan, 10,000 rpm, 10 minutes) at room temperature to collect 50 μl of the supernatant, to which 100 μl of 2 μg/ml of daunorubicin hydrochloride (Wako) (internal standard)/20 mM sodium phosphate buffer (pH 7.4) was added. The treatment sample liquid was filled into a HPLC sample vial, and subjected to HPLC analysis to determine the DOX concentration in the plasma.\nUsing the values of the above (a) and (b), the concentration of polymer-conjugated DOX was calculated based on the following equation: (Polymer-conjugated DOX concentration)=(total DOX concentration)−(free DOX concentration) 4) Result of Determination of Concentration Change with Time in the Plasma\nAn amount between 10-20 mg each of 4 different polymers (8, 15, 20, and 39 DOX) was weighed accurately into a sample vial, to which 1 ml of dichloromethane was added to completely dissolve the polymer. Then, under the stream of nitrogen, the solvent was evaporated to prepare the polymer in the film form. Under reduced pressure, it was further dried at room temperature for 1 hour, and then 20 mM sodium phosphate buffer (pH 7.4)/5%(w/v) glucose was added to a polymer concentration of 10 mg/ml to hydrate the polymer film at 4° C. After stirring overnight at 4° C., it was subjected to ultrasonic treatment in ice chilled water for 10 minutes using the Biodisruptor (Nihonseiki Kaisha Ltd., High Power Unit). Subsequently, it was filtered with a 0.22 μm filter (Millipore, Millex™ GP PES) to prepare polymeric micelles of the filtrate, which were used in the subsequent experiment."}, "[3]": {"assay": "side effects: changes in body weight of PC-3-xenografted nude mice", "conditions": "tail vein, every 4 days for a total of 3 times", "protocol": "as §1"}, "[4]": {"assay": "study on pH-dependency of drug release from polymeric micelles", "format": "physicochemical", "conditions": "37° C.", "description": "To 950 μl of 20 mM ammonium formate buffer (pH 3), sodium acetate buffer (pH 5), or sodium phosphate buffer (pH 7.4) previously heated to 37° C., 50 μl of the polymeric micelles prepared in the above method were added to initiate a drug release experiment. At predetermined timing, 50 μl of the sample was collected, and instead the liquid amount was replenished with the same buffer, The free DOX concentration in the collected sample was determined by HPLC according to the above-mentioned method."}}, "note": "Structures can show the parent of a compound that is named as a salt. Where two headings read alike, the source gives them in different places.", "data": [{"compound": "COc1cccc2c1C(=O)c1c(O)c3c(c(O)c1C2=O)C[C@@](O)(C(=O)CO)C[C@@H]3O[C@H]1C[C@H](N)[C@H](O)[C@H](C)O1", "note": "[DOX solution (Comp. Ex. 12), doxorubicin hydrochloride]", "values": [{"measurement": "MTD", "setting": "[1]; mouse, in vivo, read-out: MTD", "result": 5, "unit": "mg/kg"}, {"measurement": "T/C at the maximum (tumor volume of drug group to control group)", "setting": "[2]; 5 mg/kg (MTD)", "result": 0.4}]}, {"compound": "COc1cccc2c1C(=O)c1c(O)c3c(c(O)c1C2=O)C[C@@](O)(C(=O)CO)C[C@@H]3O[C@H]1C[C@H](N)[C@@H](O)[C@H](C)O1", "note": "[epirubicin hydrochloride]", "values": [{"measurement": "AUC", "setting": "in vivo; male, Wistar", "result": 40, "unit": "ng·h/mL"}]}, {"compound": "MeO-PEG-pAsp (Hyd-DOX) [8DOX (Comp. Ex. 5)]", "values": [{"measurement": "AUC", "setting": "in vivo; iv", "result": 19100, "unit": "ng·h/mL"}, {"measurement": "retention in the plasma (in words)", "setting": "in vivo; iv", "result": "relatively persistent retention in the plasma"}]}, {"compound": "MeO-PEG-pAsp (Hyd-DOX) [15DOX (Comp. Ex. 6)]", "values": [{"measurement": "AUC", "setting": "in vivo; iv", "result": 7600, "unit": "ng·h/mL"}, {"measurement": "retention in the plasma (in words)", "setting": "in vivo; iv", "result": "relatively persistent retention in the plasma"}]}, {"compound": "MeO-PEG-pAsp (Hyd-DOX) [20DOX (Comp. Ex. 6)]", "values": [{"measurement": "AUC", "setting": "in vivo; iv", "result": 3100, "unit": "ng·h/mL"}, {"measurement": "retention in the plasma (in words)", "setting": "in vivo; iv", "result": "rapidly disappear"}]}, {"compound": "MeO-PEG-pAsp (Hyd-DOX) [39DOX (Comp. Ex. 6)]", "values": [{"measurement": "AUC", "setting": "in vivo; iv", "result": 1200, "unit": "ng·h/mL"}, {"measurement": "retention in the plasma (in words)", "setting": "in vivo; iv", "result": "rapidly disappear"}]}, {"compound": "MeO-PEG-pAsp (Hyd-DOX) [Comparative Example 6]", "values": [{"measurement": "MTD", "setting": "[1]", "result": 15, "unit": "mg/kg"}, {"measurement": "decrease in body weight (maximum)", "setting": "[3]; 15 mg/kg (MTD)", "result": 13, "unit": "%"}, {"measurement": "T/C at the maximum (tumor volume of drug group to control group)", "setting": "[2]; 15 mg/kg (MTD)", "result": 0.42}]}, {"compound": "MeO-PEG-pAsp (Hyd-DOX, Bn) [8DOX (Example 5b)]", "values": [{"measurement": "AUC", "setting": "in vivo; iv", "result": 149000, "unit": "ng·h/mL"}, {"measurement": "concentration of free DOX relative to the total DOX concentration in plasma", "setting": "in vivo; iv", "result": "about 1/100"}, {"measurement": "retention in the plasma (in words)", "setting": "in vivo; iv", "result": "persistent plasma concentration"}]}, {"compound": "MeO-PEG-pAsp (Hyd-DOX, Bn) [13DOX (Example 5a)]", "values": [{"measurement": "release of DOX from the micelles", "setting": "[4]; pH 3, 20 mM ammonium formate buffer", "result": "rapidly released"}, {"measurement": "release of DOX from the micelles", "setting": "[4]; pH 5 to 7.4 (sodium acetate / sodium phosphate buffer)", "result": "the release rate decreased"}, {"measurement": "decrease in body weight (maximum)", "setting": "[3]; 11 mg/kg (MTD×⅔)", "result": 15, "unit": "%"}, {"measurement": "T/C at the maximum (tumor volume of drug group to control group)", "setting": "[2]; 11 mg/kg (MTD×⅔)", "result": 0.32}, {"measurement": "AUC", "setting": "in vivo; iv", "result": 238000, "unit": "ng·h/mL"}]}, {"compound": "MeO-PEG-pAsp (Hyd-DOX, C4-Phenyl) [6DOX (Example 7)]", "values": [{"measurement": "AUC", "setting": "in vivo; iv", "result": 156000, "unit": "ng·h/mL"}]}, {"compound": "MeO-PEG-pAsp (Hyd-DOX, C8) [12DOX (Example 3)]", "values": [{"measurement": "AUC", "setting": "in vivo; iv", "result": 90700, "unit": "ng·h/mL"}]}, {"compound": "MeO-PEG-pAsp (Hyd-DOX, NH4) [12DOX (Comp. Ex. 7)]", "values": [{"measurement": "AUC", "setting": "in vivo; iv", "result": 69500, "unit": "ng·h/mL"}, {"measurement": "AUC relative to that of Example 5", "setting": "in vivo; iv", "result": "about ¼"}, {"measurement": "increase in AUC compared to the DOX solution", "setting": "in vivo; iv", "result": "about 500 fold"}]}, {"compound": "MeO-PEG-pAsp (amide-DOX) [13DOX (Amide) (Comp. Ex. 9)]", "values": [{"measurement": "AUC", "setting": "in vivo; iv", "result": 57900, "unit": "ng·h/mL"}, {"measurement": "AUC relative to that of Example 5", "setting": "in vivo; iv", "result": "about ¼"}, {"measurement": "increase in AUC compared to the DOX solution", "setting": "in vivo; iv", "result": "about 500 fold"}]}]}
